Legend:
[1] = molecular target: GABARAP (for ITC and NMR) (human) (UniProt O95166); assay: ITC; peptide 0.4 mM titrated into 0.020 mM LC3/GABARAP protein in 26 steps, 25°C; 50 mM Na2HPO4, 100 mM NaCl, pH 7.0; one-site model
[2] = molecular target: LC3B (for ITC and NMR) (human) (UniProt Q9GZQ8); assay: as above

GABARAP (for ITC and NMR) (human), sequence (O95166 whole entry): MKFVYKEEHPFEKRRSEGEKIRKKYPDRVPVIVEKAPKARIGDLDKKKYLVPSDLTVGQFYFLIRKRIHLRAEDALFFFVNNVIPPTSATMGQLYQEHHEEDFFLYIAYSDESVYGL

Ka [1] [M⁻¹]	Kd [1] [µM]	dH [1] [kcal/mol]	stoichiometry N [1]	Ka [2] [M⁻¹]	Kd [2] [µM]	dH [2] [kcal/mol]	stoichiometry N [2]	Substance
130000	7.75	-6.7	1.17	20000	50	-1.4	–	PLEKHM1‐LIR N637G peptide (ITC) (from UniProt Q9Y4G2 629-642)
1.13e+07	0.09	-9.2	1.07	3.03e+06	0.33	-7.9	1.06	PLEKHM1‐LIR VNV‐CIL peptide (ITC) (from UniProt Q9Y4G2 629-642)
